Laboratory results as given in the Human Domainome abundance scans (Beltran et al. 2025).
± gives the uncertainty stated by the source.

B1: WW domain-containing transcription regulator protein 1, residues 116 to 162; numbered along this chain, Q9GZV5 (parent)
chain: QSYDVTDELPLPPGWEMTFTATGQRYFLNHIEKITTWQDPRKAMNQP

Variants of: B1
Test: abundance fitness (aPCA) (normalised: wild type 0, dead -1); higher = more abundant; growth selection in yeast, the domain comes from the species named
Settings: Homo sapiens
In the case of L28P, the abundance fitness is reported as -0.697 ± 0.099. With L28Y the abundance fitness was -0.268 ± 0.087. In the case of L28R, the abundance fitness is reported as -0.112 ± 0.029. L28N showed an abundance fitness of -0.446 ± 0.085. Work on L28G yielded an abundance fitness of -0.583 ± 0.041. In the case of L28V, the abundance fitness is reported as 0.035 ± 0.042. For L28S, the abundance fitness was -0.205 ± 0.043. Work on L28I yielded an abundance fitness of 0.044 ± 0.13. Variant L28C has an abundance fitness of -0.16 ± 0.046. Variant L28T has an abundance fitness of -0.096 ± 0.059. For L28M, the abundance fitness was 0.055 ± 0.065. In the case of L28H, the abundance fitness is reported as -0.55 ± 0.099. With L28D the abundance fitness was -0.909 ± 0.15. In the case of L28A, the abundance fitness is reported as -0.143 ± 0.043. L28K showed an abundance fitness of 0.128 ± 0.067. L28F gave an abundance fitness of -0.335 ± 0.074. With L28W the abundance fitness was -0.426 ± 0.035. With Y26D the abundance fitness was -0.739 ± 0.085. For Y26T, the abundance fitness was -0.409 ± 0.05. With Y26G the abundance fitness was -0.661 ± 0.047. With Y26S the abundance fitness was -0.54 ± 0.042. Y26H showed an abundance fitness of -0.387 ± 0.071. With Y26F the abundance fitness was -0.265 ± 0.06. For Y26P, the abundance fitness was -0.814 ± 0.15. Work on Y26R yielded an abundance fitness of -0.487 ± 0.044. With Y26C the abundance fitness was -0.566 ± 0.065. Work on Y26E yielded an abundance fitness of -0.586 ± 0.065. For Y26W, the abundance fitness was -0.587 ± 0.054. Y26I showed an abundance fitness of -0.409 ± 0.074. For Y26N, the abundance fitness was -0.412 ± 0.067. Work on Y26V yielded an abundance fitness of -0.322 ± 0.039. Y26A gave an abundance fitness of -0.397 ± 0.034. In the case of Y26K, the abundance fitness is reported as -0.506 ± 0.051. H30C showed an abundance fitness of -0.333 ± 0.046. H30E gave an abundance fitness of -0.167 ± 0.041. In the case of H30K, the abundance fitness is reported as -0.05 ± 0.044. H30F gave an abundance fitness of -0.484 ± 0.04. In the case of H30I, the abundance fitness is reported as -0.412 ± 0.049. H30G gave an abundance fitness of -0.3 ± 0.027. Variant H30L has an abundance fitness of -0.344 ± 0.035. H30A gave an abundance fitness of -0.152 ± 0.026. In the case of H30D, the abundance fitness is reported as -0.247 ± 0.041. Work on A21M yielded an abundance fitness of -0.079 ± 0.051. A21W gave an abundance fitness of -0.448 ± 0.048. Work on A21S yielded an abundance fitness of -0.014 ± 0.028. For A21R, the abundance fitness was -0.109 ± 0.036. In the case of A21C, the abundance fitness is reported as -0.167 ± 0.05. Variant A21P has an abundance fitness of -0.088 ± 0.05. A21D showed an abundance fitness of -0.029 ± 0.042. Work on A21E yielded an abundance fitness of -0.002 ± 0.036. Variant A21Q has an abundance fitness of -0.272 ± 0.06. A21T gave an abundance fitness of -0.039 ± 0.03. Work on A21I yielded an abundance fitness of -0.1 ± 0.052. In the case of A21H, the abundance fitness is reported as -0.108 ± 0.058. With A21K the abundance fitness was -0.019 ± 0.033. Work on A21G yielded an abundance fitness of -0.072 ± 0.025. In the case of A21Y, the abundance fitness is reported as -0.299 ± 0.031. A21N gave an abundance fitness of 0.019 ± 0.048. For T22P, the abundance fitness was -0.557 ± 0.043. Variant T22V has an abundance fitness of -0.37 ± 0.029. Work on T22K yielded an abundance fitness of -0.087 ± 0.034. T22Q showed an abundance fitness of -0.141 ± 0.045. T22S gave an abundance fitness of -0.058 ± 0.033. T22D gave an abundance fitness of 0.104 ± 0.032. For T22H, the abundance fitness was -0.184 ± 0.035. T22M gave an abundance fitness of -0.277 ± 0.05. T22Y gave an abundance fitness of -0.422 ± 0.061. T22G gave an abundance fitness of -0.052 ± 0.024. With T22L the abundance fitness was -0.192 ± 0.034. For T22F, the abundance fitness was -0.35 ± 0.045. Variant T22A has an abundance fitness of -0.092 ± 0.031. T22W gave an abundance fitness of -0.357 ± 0.034. T22N gave an abundance fitness of -0.086 ± 0.041. For T22E, the abundance fitness was -0.028 ± 0.031. T22C showed an abundance fitness of -0.033 ± 0.034. T20P showed an abundance fitness of -0.937 ± 0.13. With T20K the abundance fitness was -0.873 ± 0.13. Variant T20M has an abundance fitness of -0.295 ± 0.076. Work on T20N yielded an abundance fitness of -0.081 ± 0.054. T20R gave an abundance fitness of -0.65 ± 0.041. With T20Q the abundance fitness was -0.924 ± 0.15. With T20S the abundance fitness was -0.115 ± 0.041. In the case of T20L, the abundance fitness is reported as -0.519 ± 0.045.
